Data taken from the supplement of paper PMC9112550, “Optimization of the antimicrobial peptide Bac7 by deep mutational scanning” (BMC Biology, 2022).

System: Escherichia coli TOP10
Assay: shrunken log2 fold change of peptide-encoding DNA abundance (4.5 h post-induction vs induction); higher = less antimicrobial activity (less host growth inhibition)
Details: time post-induction: 4.5 h; library: site-saturation at positions 5, 18, 19, 20
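Also: peptides expressed intracellularly from a pBAD plasmid library in pooled LB shake-flask culture, induced with 0.3% L-arabinose, DNA abundance read by NGS, three biological replicates, DESeq2 with apeglm shrinkage.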

Row | Sequence | shrunken log2 fold change
1 | RRIRVRPPRLPRPRPRPWPNPRP | 0.179
2 | RRIRVRPPRLPRPRPRPWPPPRP | 0.46
3 | RRIRVRPPRLPRPRPRPWQLPRP | -0.421
4 | RRIRVRPPRLPRPRPRPWRCPRP | -0.0179
5 | RRIRVRPPRLPRPRPRPWREPRP | 0.0932
6 | RRIRVRPPRLPRPRPRPWRHPRP | 0.288
7 | RRIRVRPPRLPRPRPRPWSRPRP | -0.273
8 | RRIRVRPPRLPRPRPRPWTAPRP | -0.12
9 | RRIRVRPPRLPRPRPRPWTTPRP | 0.115
10 | RRIRVRPPRLPRPRPRPWVLPRP | 0.054
11 | RRIRVRPPRLPRPRPRPWWQPRP | -0.201
12 | RRIRVRPPRLPRPRPRPWWRPRP | 1.25
13 | RRIRVRPPRLPRPRPRPWWYPRP | -0.327
14 | RRIRVRPPRLPRPRPRPWYCPRP | -0.462
15 | RRIRVRPPRLPRPRPRPYAGPRP | 0.0438
16 | RRIRVRPPRLPRPRPRPYCAPRP | -0.229
17 | RRIRVRPPRLPRPRPRPYCCPRP | -0.252
18 | RRIRVRPPRLPRPRPRPYCIPRP | -0.27
19 | RRIRVRPPRLPRPRPRPYDYPRP | -0.00141
20 | RRIRVRPPRLPRPRPRPYEHPRP | -0.118
21 | RRIRVRPPRLPRPRPRPYFRPRP | -0.153
22 | RRIRVRPPRLPRPRPRPYGFPRP | -0.222
23 | RRIRVRPPRLPRPRPRPYHCPRP | -0.157
24 | RRIRVRPPRLPRPRPRPYMTPRP | -0.566
25 | RRIRVRPPRLPRPRPRPYMYPRP | -0.588

Row | Sequence | shrunken log2 fold change
26 | RRIRVRPPRLPRPRPRPYPCPRP | 3.36e-05
27 | RRIRVRPPRLPRPRPRPYPSPRP | -0.422
28 | RRIRVRPPRLPRPRPRPYQCPRP | -0.185
29 | RRIRVRPPRLPRPRPRPYSIPRP | 0.0569
30 | RRIRVRPPRLPRPRPRPYVFPRP | -0.136
31 | RRIRVRPPRLPRPRPRPYVVPRP | -0.0262
32 | RRIRVRPPRLPRPRPRPYWMPRP | -0.227
33 | RRIRVRPPRLPRPRPRPYWPPRP | -0.182
34 | RRIRVRPPRLPRPRPRPYYRPRP | -0.309
35 | RRIRWRPPRLPRPRPRPAAMPRP | 0.604
36 | RRIRWRPPRLPRPRPRPADCPRP | -0.00218
37 | RRIRWRPPRLPRPRPRPADMPRP | 0.0185
38 | RRIRWRPPRLPRPRPRPADTPRP | 0.0101
39 | RRIRWRPPRLPRPRPRPAEYPRP | 0.101
40 | RRIRWRPPRLPRPRPRPAGHPRP | -0.0472
41 | RRIRWRPPRLPRPRPRPAHGPRP | 0.707
42 | RRIRWRPPRLPRPRPRPAIGPRP | 0.0325
43 | RRIRWRPPRLPRPRPRPALMPRP | 0.159
44 | RRIRWRPPRLPRPRPRPAMAPRP | 0.529
45 | RRIRWRPPRLPRPRPRPAMMPRP | 0.306
46 | RRIRWRPPRLPRPRPRPANAPRP | 0.711
47 | RRIRWRPPRLPRPRPRPAPQPRP | 0.743
48 | RRIRWRPPRLPRPRPRPAQIPRP | 0.0333
49 | RRIRWRPPRLPRPRPRPAQTPRP | 0.476
50 | RRIRWRPPRLPRPRPRPARAPRP | 0.563

Row | Sequence | shrunken log2 fold change
51 | RRIRWRPPRLPRPRPRPASKPRP | 0.294
52 | RRIRWRPPRLPRPRPRPATSPRP | 0.385
53 | RRIRWRPPRLPRPRPRPAWCPRP | 0.469
54 | RRIRWRPPRLPRPRPRPAYWPRP | 0.473
55 | RRIRWRPPRLPRPRPRPCCFPRP | -0.0922
56 | RRIRWRPPRLPRPRPRPCDSPRP | -0.00192
57 | RRIRWRPPRLPRPRPRPCFNPRP | -0.382
58 | RRIRWRPPRLPRPRPRPCGEPRP | 0.216
59 | RRIRWRPPRLPRPRPRPCGLPRP | 0.123
60 | RRIRWRPPRLPRPRPRPCHAPRP | -0.253
61 | RRIRWRPPRLPRPRPRPCHEPRP | -0.00847
62 | RRIRWRPPRLPRPRPRPCIPPRP | -0.0746
63 | RRIRWRPPRLPRPRPRPCKPPRP | 0.119
64 | RRIRWRPPRLPRPRPRPCLRPRP | 0.0809
65 | RRIRWRPPRLPRPRPRPCLYPRP | -0.0689
66 | RRIRWRPPRLPRPRPRPCPDPRP | 0.111
67 | RRIRWRPPRLPRPRPRPCPGPRP | -0.218
68 | RRIRWRPPRLPRPRPRPCPHPRP | -0.00679
69 | RRIRWRPPRLPRPRPRPCPKPRP | -0.0941
70 | RRIRWRPPRLPRPRPRPCPLPRP | -0.247
71 | RRIRWRPPRLPRPRPRPCQFPRP | -0.00192
72 | RRIRWRPPRLPRPRPRPCRGPRP | -0.0518
73 | RRIRWRPPRLPRPRPRPCYVPRP | -0.127
74 | RRIRWRPPRLPRPRPRPDADPRP | 3.34
75 | RRIRWRPPRLPRPRPRPDCHPRP | -0.346

Row | Sequence | shrunken log2 fold change
76 | RRIRWRPPRLPRPRPRPDDGPRP | 0.305
77 | RRIRWRPPRLPRPRPRPDFAPRP | 0.49
78 | RRIRWRPPRLPRPRPRPDFCPRP | 0.247
79 | RRIRWRPPRLPRPRPRPDFLPRP | -0.221
80 | RRIRWRPPRLPRPRPRPDFMPRP | -0.015
81 | RRIRWRPPRLPRPRPRPDGCPRP | 0.0109
82 | RRIRWRPPRLPRPRPRPDGGPRP | -0.0355
83 | RRIRWRPPRLPRPRPRPDGVPRP | -0.1
84 | RRIRWRPPRLPRPRPRPDHNPRP | -0.302
85 | RRIRWRPPRLPRPRPRPDITPRP | 0.179
86 | RRIRWRPPRLPRPRPRPDKDPRP | -0.365
87 | RRIRWRPPRLPRPRPRPDKSPRP | -0.135
88 | RRIRWRPPRLPRPRPRPDLKPRP | 0.12
89 | RRIRWRPPRLPRPRPRPDLNPRP | 0.392
90 | RRIRWRPPRLPRPRPRPDMRPRP | 0.499
91 | RRIRWRPPRLPRPRPRPDNMPRP | -0.0443
92 | RRIRWRPPRLPRPRPRPDPWPRP | 0.0147
93 | RRIRWRPPRLPRPRPRPDQNPRP | -0.0342
94 | RRIRWRPPRLPRPRPRPDRAPRP | 0.487
95 | RRIRWRPPRLPRPRPRPDREPRP | -0.0009
96 | RRIRWRPPRLPRPRPRPDRHPRP | -0.157
97 | RRIRWRPPRLPRPRPRPDRPPRP | -0.0134
98 | RRIRWRPPRLPRPRPRPDTSPRP | 0.0558
99 | RRIRWRPPRLPRPRPRPDTYPRP | -0.161
100 | RRIRWRPPRLPRPRPRPDVLPRP | -0.0113

Row | Sequence | shrunken log2 fold change
101 | RRIRWRPPRLPRPRPRPDYFPRP | -0.0991
102 | RRIRWRPPRLPRPRPRPEAPPRP | 1.01
103 | RRIRWRPPRLPRPRPRPEASPRP | 0.551
104 | RRIRWRPPRLPRPRPRPEATPRP | 1.44
105 | RRIRWRPPRLPRPRPRPECQPRP | -0.0508
106 | RRIRWRPPRLPRPRPRPEDWPRP | 0.947
107 | RRIRWRPPRLPRPRPRPEEAPRP | 0.113
108 | RRIRWRPPRLPRPRPRPEEPPRP | 0.805
109 | RRIRWRPPRLPRPRPRPEHLPRP | -0.138
110 | RRIRWRPPRLPRPRPRPEKDPRP | -0.0712
111 | RRIRWRPPRLPRPRPRPEKTPRP | 0.191
112 | RRIRWRPPRLPRPRPRPEKYPRP | -0.357
113 | RRIRWRPPRLPRPRPRPELDPRP | 1.82
114 | RRIRWRPPRLPRPRPRPELFPRP | -0.0123
115 | RRIRWRPPRLPRPRPRPELLPRP | 0.485
116 | RRIRWRPPRLPRPRPRPELVPRP | 0.605
117 | RRIRWRPPRLPRPRPRPEMTPRP | -0.0833
118 | RRIRWRPPRLPRPRPRPEPGPRP | 0.43
119 | RRIRWRPPRLPRPRPRPEQDPRP | -0.0232
120 | RRIRWRPPRLPRPRPRPESQPRP | 0.185
121 | RRIRWRPPRLPRPRPRPETDPRP | 0.773
122 | RRIRWRPPRLPRPRPRPETEPRP | 0.411
123 | RRIRWRPPRLPRPRPRPETQPRP | 0.0616
124 | RRIRWRPPRLPRPRPRPEVPPRP | 0.0568
125 | RRIRWRPPRLPRPRPRPEYHPRP | 0.0167

Row | Sequence | shrunken log2 fold change
126 | RRIRWRPPRLPRPRPRPFCWPRP | 0.403
127 | RRIRWRPPRLPRPRPRPFDPPRP | 0.0827
128 | RRIRWRPPRLPRPRPRPFDSPRP | -0.124
129 | RRIRWRPPRLPRPRPRPFDWPRP | 0.344
130 | RRIRWRPPRLPRPRPRPFDYPRP | -0.554
131 | RRIRWRPPRLPRPRPRPFEPPRP | 1.2
132 | RRIRWRPPRLPRPRPRPFFAPRP | 0.367
133 | RRIRWRPPRLPRPRPRPFFMPRP | -0.108
134 | RRIRWRPPRLPRPRPRPFHCPRP | -0.026
135 | RRIRWRPPRLPRPRPRPFICPRP | -0.309
136 | RRIRWRPPRLPRPRPRPFIEPRP | -0.441
137 | RRIRWRPPRLPRPRPRPFKHPRP | -0.405
138 | RRIRWRPPRLPRPRPRPFKIPRP | -0.358
139 | RRIRWRPPRLPRPRPRPFLIPRP | -0.488
140 | RRIRWRPPRLPRPRPRPFNQPRP | -0.494
141 | RRIRWRPPRLPRPRPRPFPHPRP | 0.29
142 | RRIRWRPPRLPRPRPRPFRSPRP | -0.128
143 | RRIRWRPPRLPRPRPRPFTMPRP | -0.36
144 | RRIRWRPPRLPRPRPRPFVLPRP | 0.231
145 | RRIRWRPPRLPRPRPRPFVRPRP | -0.127
146 | RRIRWRPPRLPRPRPRPFVSPRP | -0.135
147 | RRIRWRPPRLPRPRPRPFYLPRP | -0.336
148 | RRIRWRPPRLPRPRPRPGAWPRP | 0.373
149 | RRIRWRPPRLPRPRPRPGAYPRP | 0.109
150 | RRIRWRPPRLPRPRPRPGENPRP | -0.0316
